Source: article doi:10.1101/2023.12.12.571217 (2023)
Values belong to the binder of their own block, whether it stands above or below them. Positions of bridges follow the written chain, without caps; N, C: chain ends.

Legend:
[1] = target: T1, N-terminally biotinylated PADI4 (bio-His-PADI4), recombinant human peptidylarginine deiminase IV (human, UniProt Q9UM07 1-663, biotin on the N-terminal Avi-Tag (BirA co-expression)); test: SPR
[2] = target: T1, N-terminally biotinylated PADI4 …; test: SPR; 10 mM CaCl2 + Cl-amidine
[3] = target: T1, N-terminally biotinylated PADI4 …; test: SPR; 0 mM CaCl2
PADI4 variant D168A = PADI4 variant D168A (human, UniProt Q9UM07 1-663, D168A); test: SPR
Chain of PADI4 variant D168A (Q9UM07 whole entry D168A): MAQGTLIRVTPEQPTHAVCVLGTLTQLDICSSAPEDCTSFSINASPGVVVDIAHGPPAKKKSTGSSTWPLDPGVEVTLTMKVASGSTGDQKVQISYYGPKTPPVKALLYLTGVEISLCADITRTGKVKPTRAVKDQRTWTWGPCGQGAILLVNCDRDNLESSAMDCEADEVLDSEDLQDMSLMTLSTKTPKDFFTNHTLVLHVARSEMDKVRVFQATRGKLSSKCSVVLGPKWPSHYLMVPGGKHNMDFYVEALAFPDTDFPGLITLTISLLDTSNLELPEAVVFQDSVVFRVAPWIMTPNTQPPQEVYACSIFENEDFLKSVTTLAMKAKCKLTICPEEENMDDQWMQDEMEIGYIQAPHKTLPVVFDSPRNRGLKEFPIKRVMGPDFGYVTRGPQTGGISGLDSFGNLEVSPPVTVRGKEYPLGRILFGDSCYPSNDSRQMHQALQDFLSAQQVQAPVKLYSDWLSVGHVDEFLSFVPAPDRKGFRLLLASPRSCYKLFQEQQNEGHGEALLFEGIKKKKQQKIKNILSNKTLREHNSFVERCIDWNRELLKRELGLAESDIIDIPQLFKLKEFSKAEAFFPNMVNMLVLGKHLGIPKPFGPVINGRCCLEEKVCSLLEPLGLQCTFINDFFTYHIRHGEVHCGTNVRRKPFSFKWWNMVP

PADI4 variant R394A = PADI4 variant R394A (human, UniProt Q9UM07 1-663, R394 with an alanine); test: SPR
Chain of PADI4 variant R394A (Q9UM07 whole entry R394A): as the sequence (Q9UM07 whole entry D168A) above, with A168D, R394A counted along it

[4] = target: T1, N-terminally biotinylated PADI4 …; test: SPR; remark: listed apart in the source
PADI4 variant C166F = PADI4 variant C166F (human, UniProt Q9UM07 1-663, C166 with bulky phenylalanine); test: SPR
Chain of PADI4 variant C166F (Q9UM07 whole entry C166F): as the sequence (Q9UM07 whole entry D168A) above, with C166F, A168D counted along it

PADI4_D165A = PADI4_D165A (human, UniProt Q9UM07 1-663, D165A); test: SPR
Chain of PADI4_D165A (Q9UM07 whole entry D165A): as the sequence (Q9UM07 whole entry D168A) above, with D165A, A168D counted along it

PADI4 variant E167A = PADI4 variant E167A (human, UniProt Q9UM07 1-663, E167A); test: SPR
Chain of PADI4 variant E167A (Q9UM07 whole entry E167A): as the sequence (Q9UM07 whole entry D168A) above, with E167A, A168D counted along it

[5] = target: T1, N-terminally biotinylated PADI4 …; test: SPR; 10 mM CaCl2
PADI4_N373A = test: SPR

T1 sequence (Q9UM07 whole entry): as the sequence (Q9UM07 whole entry D168A) above, with A168D counted along it

Kd [1]: 700 nM
Binder: {CH2CO}-YESCRYKQVLQL-NH2 (thioether N-4) [PADI4_11 variant with lysine at R7]

Kd [1]: 1400 nM
Binder: {CH2CO}-YESCKYRQVLQL-NH2 (thioether N-4) [PADI4_11 variant with lysine at R5]

Kd [2]: 382 nM
Kd [1]: 500 nM
Kd [3]: > 5000 nM
Kd (PADI4 variant D168A): 4000 nM
Kd (PADI4 variant R394A): > 10000 nM
Kd [4]: 457 nM
Kd (PADI4 variant C166F): > 10000 nM
Kd (PADI4_D165A): 3000 nM
Kd (PADI4 variant E167A): 700 nM
Kd [5]: 457 nM
Kd (PADI4_N373A): > 10000 nM
B1: PADI4_11 (peptide)
chain: {CH2CO}-YESCRYRQVLQL-NH2
modifications: thioether N-4
SMILES: CC(C)C[C@H](NC(=O)[C@H](CCC(N)=O)NC(=O)[C@H](CC(C)C)NC(=O)[C@@H](NC(=O)[C@H](CCC(N)=O)NC(=O)[C@H](CCCNC(=N)N)NC(=O)[C@H](Cc1ccc(O)cc1)NC(=O)[C@H](CCCNC(=N)N)NC(=O)[C@@H]1CSCC(=O)N[C@@H](Cc2ccc(O)cc2)C(=O)N[C@@H](CCC(=O)O)C(=O)N[C@@H](CO)C(=O)N1)C(C)C)C(N)=O
